According to publication PMC9482650, “Quantitative fragmentomics allow affinity mapping of interactomes” (Nature Communications, 2022):
Numbering of substitutions follows the chain as printed. Each block holds one binder with its values, some of them ahead of it.

How the values were obtained:
Assay in all cases: holdup assay
Design in all cases: key: below the threshold = too weak to quantify, mostly under pKd 3.1 to 4
PARD3B_1, Q8TEW8 = target: T1, PARD3B_1, Q8TEW8
T1 sequence (Q8TEW8 196-299, limits assumed, looked up): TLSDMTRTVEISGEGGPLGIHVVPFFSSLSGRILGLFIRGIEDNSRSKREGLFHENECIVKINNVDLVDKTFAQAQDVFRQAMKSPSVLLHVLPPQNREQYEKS

GRASP, Q7Z6J2 = target: GRASP, Q7Z6J2
Sequence of GRASP, Q7Z6J2 (Q7Z6J2 96-193): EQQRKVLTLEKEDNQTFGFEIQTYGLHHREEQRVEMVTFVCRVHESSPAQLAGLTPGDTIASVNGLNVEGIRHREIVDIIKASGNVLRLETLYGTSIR

FRMPD4, Q14CM0 = target: FRMPD4, Q14CM0
Sequence of FRMPD4, Q14CM0 (Q14CM0 67-160): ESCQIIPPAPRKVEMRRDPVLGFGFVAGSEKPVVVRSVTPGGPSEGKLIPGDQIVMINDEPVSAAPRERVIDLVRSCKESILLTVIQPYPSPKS

ARHGAP21, Q5T5U3 = target: T2, ARHGAP21, Q5T5U3
T2 sequence (Q5T5U3 45-169, limits assumed, looked up): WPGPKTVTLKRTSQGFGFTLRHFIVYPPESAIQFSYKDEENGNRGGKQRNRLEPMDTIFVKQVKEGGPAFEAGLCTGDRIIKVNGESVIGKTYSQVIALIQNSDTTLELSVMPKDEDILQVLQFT

MAGI3_2, Q5TCQ9 = target: MAGI3_2, Q5TCQ9
Sequence of MAGI3_2, Q5TCQ9 (Q5TCQ9 398-503): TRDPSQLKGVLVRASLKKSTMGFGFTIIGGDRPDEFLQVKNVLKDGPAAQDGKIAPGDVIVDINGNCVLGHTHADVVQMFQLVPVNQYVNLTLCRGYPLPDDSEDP

MPDZ_5, O75970 = target: T3, MPDZ_5, O75970
T3 sequence (O75970 695-796, limits assumed, looked up): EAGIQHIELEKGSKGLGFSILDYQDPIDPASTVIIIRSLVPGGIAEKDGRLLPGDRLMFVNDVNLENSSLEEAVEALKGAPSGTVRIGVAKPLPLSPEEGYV

DLG3_3, Q92796 = target: T4, DLG3_3, Q92796
T4 sequence (Q92796 374-475, limits assumed, looked up): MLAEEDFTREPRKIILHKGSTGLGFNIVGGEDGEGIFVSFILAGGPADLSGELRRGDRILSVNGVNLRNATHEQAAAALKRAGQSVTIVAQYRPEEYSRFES

IL16_3, Q14005 = target: IL16_3, Q14005
Sequence of IL16_3, Q14005 (Q14005 1107-1207): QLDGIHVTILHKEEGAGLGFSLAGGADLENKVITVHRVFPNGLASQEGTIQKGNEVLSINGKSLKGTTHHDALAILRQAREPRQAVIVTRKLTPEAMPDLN

PCLO, Q9Y6V0 = target: T5, PCLO, Q9Y6V0
T5 sequence (Q9Y6V0 4491-4600, limits assumed, looked up): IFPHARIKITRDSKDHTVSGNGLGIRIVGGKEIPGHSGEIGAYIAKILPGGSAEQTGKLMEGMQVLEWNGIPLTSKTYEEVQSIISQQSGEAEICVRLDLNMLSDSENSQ

LIN7A, O14910 = target: T6, LIN7A, O14910
T6 sequence (O14910 103-200, limits assumed, looked up): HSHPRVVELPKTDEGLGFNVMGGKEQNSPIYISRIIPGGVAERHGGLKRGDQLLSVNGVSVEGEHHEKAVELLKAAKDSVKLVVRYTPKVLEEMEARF

LDB3, O75112 = target: LDB3, O75112
Sequence of LDB3, O75112 (O75112 1-94): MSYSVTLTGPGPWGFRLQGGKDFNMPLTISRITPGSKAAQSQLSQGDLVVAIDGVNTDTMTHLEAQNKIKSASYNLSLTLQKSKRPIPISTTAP

DLG1_2, Q12959 = target: DLG1_2, Q12959
GRIP2_5, Q9C0E4 = target: GRIP2_5, Q9C0E4
Sequence of GRIP2_5, Q9C0E4 (Q9C0E4 544-642): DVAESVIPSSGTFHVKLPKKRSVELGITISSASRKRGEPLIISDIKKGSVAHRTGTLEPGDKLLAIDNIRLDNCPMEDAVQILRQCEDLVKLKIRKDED

PICK1, Q9NRD5 = target: PICK1, Q9NRD5
Sequence of PICK1, Q9NRD5 (Q9NRD5 17-115): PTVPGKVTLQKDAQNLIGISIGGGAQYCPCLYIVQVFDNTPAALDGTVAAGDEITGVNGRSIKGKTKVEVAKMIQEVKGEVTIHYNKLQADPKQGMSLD

SNTG2, Q9NY99 = target: T7, SNTG2, Q9NY99
T7 sequence (Q9NY99 68-166, limits assumed, looked up): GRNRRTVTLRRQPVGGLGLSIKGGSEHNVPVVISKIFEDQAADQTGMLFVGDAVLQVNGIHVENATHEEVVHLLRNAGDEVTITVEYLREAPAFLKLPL

DLG1_3, Q12959 = target: DLG1_3, Q12959
DLG2_2, Q15700 = target: DLG2_2, Q15700
Sequence of DLG2_2, Q15700 (Q15700 189-283): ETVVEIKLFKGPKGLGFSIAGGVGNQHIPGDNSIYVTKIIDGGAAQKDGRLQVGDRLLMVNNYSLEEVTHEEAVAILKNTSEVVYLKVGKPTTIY

TX1BP3, O14907 = target: T8, TX1BP3, O14907
T8 sequence (O14907 10-122, limits assumed, looked up): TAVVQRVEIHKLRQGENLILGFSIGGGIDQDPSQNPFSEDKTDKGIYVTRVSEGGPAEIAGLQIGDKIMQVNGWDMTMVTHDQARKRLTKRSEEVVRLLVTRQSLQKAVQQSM

LNX1_3, Q8TBB1 = target: LNX1_3, Q8TBB1
Sequence of LNX1_3, Q8TBB1 (Q8TBB1 500-596): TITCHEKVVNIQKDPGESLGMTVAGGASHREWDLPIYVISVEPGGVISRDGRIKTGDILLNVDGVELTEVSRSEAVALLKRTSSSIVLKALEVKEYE

GRIP2_3, Q9C0E4 = target: GRIP2_3, Q9C0E4
Sequence of GRIP2_3, Q9C0E4 (Q9C0E4 238-339): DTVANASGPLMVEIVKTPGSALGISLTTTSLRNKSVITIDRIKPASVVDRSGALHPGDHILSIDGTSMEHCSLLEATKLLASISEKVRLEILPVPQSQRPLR

LIN7B, Q9HAP6 = target: T9, LIN7B, Q9HAP6
T9 sequence (Q9HAP6 88-185, limits assumed, looked up): T6 sequence (O14910 103-200, limits assumed, looked up) with S2A, V20I, I35V, E42D, H65Q, K77Q, D78G, K89R

Inadl_5, Q8NI35 = target: Inadl_5, Q8NI35
Sequence of Inadl_5, Q8NI35 (Q8NI35 673-780): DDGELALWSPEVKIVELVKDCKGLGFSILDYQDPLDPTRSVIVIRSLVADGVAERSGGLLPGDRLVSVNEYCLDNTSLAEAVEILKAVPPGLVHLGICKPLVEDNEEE

Inadl_10, Q8NI35 = target: Inadl_10, Q8NI35
Sequence of Inadl_10, Q8NI35 (Q8NI35 1673-1763): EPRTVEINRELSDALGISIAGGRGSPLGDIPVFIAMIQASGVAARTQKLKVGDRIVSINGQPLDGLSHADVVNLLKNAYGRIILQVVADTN

DLG1_1, Q12959 = target: DLG1_1, Q12959
MAST2, Q6P0Q8 = target: MAST2, Q6P0Q8
Sequence of MAST2, Q6P0Q8 (Q6P0Q8 1099-1202): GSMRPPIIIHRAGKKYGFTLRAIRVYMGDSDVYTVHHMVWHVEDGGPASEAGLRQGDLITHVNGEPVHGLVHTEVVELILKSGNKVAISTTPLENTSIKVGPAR

TJP1_3, Q07157 = target: TJP1_3, Q07157
Sequence of TJP1_3, Q07157 (Q07157 416-512): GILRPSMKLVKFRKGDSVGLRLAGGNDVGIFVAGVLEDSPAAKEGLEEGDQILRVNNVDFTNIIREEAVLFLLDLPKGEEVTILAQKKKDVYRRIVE

PDZD7_3, Q9H5P4 = target: T10, PDZD7_3, Q9H5P4
T10 sequence (Q9H5P4 857-944, limits assumed, looked up): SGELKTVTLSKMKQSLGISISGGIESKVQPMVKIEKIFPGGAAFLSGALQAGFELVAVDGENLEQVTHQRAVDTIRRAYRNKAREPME

GRIP2_7, Q9C0E4 = target: GRIP2_7, Q9C0E4
Sequence of GRIP2_7, Q9C0E4 (Q9C0E4 934-1023): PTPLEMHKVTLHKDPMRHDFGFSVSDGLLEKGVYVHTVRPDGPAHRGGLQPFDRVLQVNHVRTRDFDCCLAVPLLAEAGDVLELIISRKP

[1] = plain residues with an end cap or a label only (N-terminal biotin on a linker: ttds)
[2] = plain residues with an end cap or a label only (N-terminal biotin on a linker: ahx)

pKd (PARD3B_1, Q8TEW8; [1]): 3.98
pKd (GRASP, Q7Z6J2; [1]): below the threshold
pKd (FRMPD4, Q14CM0; [1]): below the threshold
pKd (ARHGAP21, Q5T5U3; [1]): below the threshold
pKd (MAGI3_2, Q5TCQ9; [1]): 4.6
pKd (MPDZ_5, O75970; [1]): below the threshold
pKd (DLG3_3, Q92796; [1]): 3.57
pKd (IL16_3, Q14005; [1]): below the threshold
pKd (PCLO, Q9Y6V0; [1]): below the threshold
pKd (LIN7A, O14910; [1]): below the threshold
pKd (LDB3, O75112; [1]): below the threshold
pKd (DLG1_2, Q12959; [1]): 4.85
pKd (GRIP2_5, Q9C0E4; [1]): below the threshold
pKd (PICK1, Q9NRD5; [1]): below the threshold
pKd (SNTG2, Q9NY99; [1]): 4.42
pKd (DLG1_3, Q12959; [1]): 4.05
pKd (DLG2_2, Q15700; [1]): 4.16
pKd (TX1BP3, O14907; [1]): 4.13
pKd (LNX1_3, Q8TBB1; [1]): below the threshold
pKd (GRIP2_3, Q9C0E4; [1]): below the threshold
pKd (LIN7B, Q9HAP6; [1]): below the threshold
pKd (Inadl_5, Q8NI35; [1]): below the threshold
pKd (Inadl_10, Q8NI35; [1]): below the threshold
pKd (DLG1_1, Q12959; [1]): 4.16
pKd (MAST2, Q6P0Q8; [1]): 4.69
pKd (TJP1_3, Q07157; [1]): below the threshold
pKd (PDZD7_3, Q9H5P4; [1]): 4.87
pKd (GRIP2_7, Q9C0E4; [1]): below the threshold
Binder: QFQYAKESYI [TAGAP, Q8N103]

pKd (PARD3B_1, Q8TEW8; [1]): below the threshold
pKd (GRASP, Q7Z6J2; [1]): 4.47
pKd (FRMPD4, Q14CM0; [1]): below the threshold
pKd (ARHGAP21, Q5T5U3; [1]): below the threshold
pKd (MAGI3_2, Q5TCQ9; [1]): 4.82
pKd (MPDZ_5, O75970; [1]): below the threshold
pKd (DLG3_3, Q92796; [1]): 4.47
pKd (IL16_3, Q14005; [1]): below the threshold
pKd (PCLO, Q9Y6V0; [1]): below the threshold
pKd (LIN7A, O14910; [1]): 3.64
pKd (LDB3, O75112; [1]): below the threshold
pKd (DLG1_2, Q12959; [1]): 5.87
pKd (GRIP2_5, Q9C0E4; [1]): below the threshold
pKd (PICK1, Q9NRD5; [1]): below the threshold
pKd (SNTG2, Q9NY99; [1]): 4.24
pKd (DLG1_3, Q12959; [1]): 4.77
pKd (DLG2_2, Q15700; [1]): 5.35
pKd (TX1BP3, O14907; [1]): 4.07
pKd (LNX1_3, Q8TBB1; [1]): 3.61
pKd (GRIP2_3, Q9C0E4; [1]): below the threshold
pKd (LIN7B, Q9HAP6; [1]): 3.94
pKd (Inadl_5, Q8NI35; [1]): below the threshold
pKd (Inadl_10, Q8NI35; [1]): below the threshold
pKd (DLG1_1, Q12959; [1]): 4.97
pKd (MAST2, Q6P0Q8; [1]): 4.88
pKd (TJP1_3, Q07157; [1]): below the threshold
pKd (PDZD7_3, Q9H5P4; [1]): 5.41
pKd (GRIP2_7, Q9C0E4; [1]): below the threshold
Binder: LCALPKVTTV [AGMAT, Q9BSE5]

pKd (PARD3B_1, Q8TEW8; [2]): 4.31
pKd (GRASP, Q7Z6J2; [2]): 4.15
pKd (FRMPD4, Q14CM0; [2]): 3.73
pKd (ARHGAP21, Q5T5U3; [2]): below the threshold
pKd (MAGI3_2, Q5TCQ9; [2]): below the threshold
pKd (MPDZ_5, O75970; [2]): below the threshold
pKd (DLG3_3, Q92796; [2]): below the threshold
pKd (IL16_3, Q14005; [2]): below the threshold
pKd (PCLO, Q9Y6V0; [2]): below the threshold
pKd (LIN7A, O14910; [2]): below the threshold
pKd (LDB3, O75112; [2]): below the threshold
pKd (DLG1_2, Q12959; [2]): below the threshold
pKd (GRIP2_5, Q9C0E4; [2]): below the threshold
pKd (PICK1, Q9NRD5; [2]): below the threshold
pKd (SNTG2, Q9NY99; [2]): below the threshold
pKd (DLG1_3, Q12959; [2]): below the threshold
pKd (DLG2_2, Q15700; [2]): below the threshold
pKd (TX1BP3, O14907; [2]): 4.39
pKd (LNX1_3, Q8TBB1; [2]): below the threshold
pKd (GRIP2_3, Q9C0E4; [2]): below the threshold
pKd (LIN7B, Q9HAP6; [2]): 3.48
pKd (Inadl_5, Q8NI35; [2]): below the threshold
pKd (Inadl_10, Q8NI35; [2]): 4.25
pKd (DLG1_1, Q12959; [2]): below the threshold
pKd (MAST2, Q6P0Q8; [2]): 4.59
pKd (TJP1_3, Q07157; [2]): below the threshold
pKd (PDZD7_3, Q9H5P4; [2]): 4.13
pKd (GRIP2_7, Q9C0E4; [2]): below the threshold
Binder: TIVSWPGTFL [LNX1, Q8TBB1]
